These results are taken from the supplement of paper PMC5998384.

For series [1], the system named is HeLa Kyoto. Put plainly: melting temperature (median over replicates), in situ; higher = more thermally stable.
Series [2] deals with HeLa Kyoto. In words: solubility change mitosis vs G1/S (difference of NP-40 vs SDS log2 ratios) (log2 ratio difference); higher = more soluble in mitosis.
Series [3] has as its system HeLa Kyoto. Put plainly: thermal stability score vs G1/S (z-score of summed log2 fold changes over temperatures); higher = more thermally stable than in G1/S.
The test system of series [4] is HeLa Kyoto. Put plainly: solubility in G1/S (NP-40 vs SDS abundance) (log2 ratio); higher = more soluble. The conditions noted are these: cell cycle stage: G1/S.
Where [5] appears, read: cell cycle stage: early G1 (4.5 h after nocodazole release).
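Throughout, for melting temperature (median over replicates), in situ: HeLa Kyoto cells synchronized by double thymidine or nocodazole block, proteins quantified by TMT10plex mass spectrometry, three independent biological replicates.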
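Throughout, for solubility change mitosis vs G1/S (difference of NP-40 vs SDS log2 ratios): synchronized HeLa Kyoto cells (double thymidine block for G1/S, nocodazole release for mitosis), protein amounts in NP-40 versus SDS lysates quantified by mass spectrometry, three biological replicates.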
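Throughout, for solubility in G1/S (NP-40 vs SDS abundance): HeLa Kyoto cells arrested at G1/S by double thymidine block, proteins quantified by TMT10plex mass spectrometry in mild NP-40 versus SDS extracts, three biological replicates.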
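Throughout, for thermal stability score vs G1/S (z-score of summed log2 fold changes over temperatures): synchronized HeLa Kyoto cells, proteins quantified by TMT10plex mass spectrometry, three biological replicates, mitosis taken 0.5 h after nocodazole release, G1/S directly after double thymidine block.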

For “MKLLTHNLLSSHVRGVGSRGFPLRLQATEVRICPVEFNPNFVARMIPKVEWSAFLEAADNLRLIQVPKGPVEGYEENEEFLRTMHHLLLEVEVIEGTLQCPESGRMFPISRGIPNMLLSEEETES [TRMT112]”, the melting temperature in the series with HeLa Kyoto [1] (cell cycle stage: G1/S) was 51.5 °C; in the series on HeLa Kyoto [1] (cell cycle stage: mitosis), 51.4 °C. Also, the “solubility change mitosis (log2)” value in the series on HeLa Kyoto [2] is 0.201. Further, the figures for the thermal stability score in the series with HeLa Kyoto [3] (setting [5]) and in the series with HeLa Kyoto [3] (cell cycle stage: mitosis) were -4.68 and -1.02, respectively. The “solubility in G1/S (log2)” value in the series with HeLa Kyoto [4] came to 0.323.
As to “MKLLTRAGSFSRFYSLKVAPKVKATAAPAGAPPQPQDLEFTKLPNGLVIASLENYSPVSRIGLFIKAGSRYEDFSNLGTTHLLRLTSSLTTKGASSFKITRGIEAVGGKLSVTATRENMAYTVECLRGDVDILMEFLLNVTTAPEFRRWEVADLQPQLKIDKAVAFQNPQTHVIENLHAAAYRNALANPLYCPDYRIGKVTSEELHYFVQNHFTSARMALIGLGVSHPVLKQVAEQFLNMRGGLGLSGAKANYRGGEIREQNGDSLVHAAFVAESAVAGSAEANAFSVLQHVLGAGPHVKRGSNTTSHLHQAVAKATQQPFDVSAFNASYSDSGLFGIYTISQATAAGDVIKAAYNQVKTIAQGNLSNTDVQAAKNKLKAGYLMSVESSECFLEEVGSQALVAGSYMPPSTVLQQIDSVANADIINAAKKFVSGQKSMAASGNLGHTPFVDEL [UQCRC2]”, the figures for the melting temperature in the series on HeLa Kyoto [1] (cell cycle stage: G1/S) and in the series with HeLa Kyoto [1] (cell cycle stage: mitosis) were 55.8 °C and 54.7 °C, respectively. In addition, the “solubility change mitosis (log2)” value in the series with HeLa Kyoto [2] is -0.00613. The thermal stability score with HeLa Kyoto [3] (setting [5]) is -1.64; with HeLa Kyoto [3] (cell cycle stage: mitosis), -4.8. Also, in the series on HeLa Kyoto [4], the “solubility in G1/S (log2)” value was determined as 0.243.
Take “MKLSRQFTVFGSAIFCVVIFSLYLMLDRGHLDYPRNPRREGSFPQGQLSMLQEKIDHLERLLAENNEIISNIRDSVINLSESVEDGPKSSQSNFSQGAGSHLLPSQLSLSVDTADCLFASQSGSHNSDVQMLDVYSLISFDNPDGGVWKQGFDITYESNEWDTEPLQVFVVPHSHNDPGWLKTFNDYFRDKTQYIFNNMVLKLKEDSRRKFIWSEISYLSKWWDIIDIQKKDAVKSLIENGQLEIVTGGWVMPDEATPHYFALIDQLIEGHQWLENNIGVKPRSGWAIDPFGHSPTMAYLLNRAGLSHMLIQRVHYAVKKHFALHKTLEFFWRQNWDLGSVTDILCHMMPFYSYDIPHTCGPDPKICCQFDFKRLPGGRFGCPWGVPPETIHPGNVQSRARMLLDQYRKKSKLFRTKVLLAPLGDDFRYCEYTEWDLQFKNYQQLFDYMNSQSKFKVKIQFGTLSDFFDALDKADETQRDKGQSMFPVLSGDFFTYADRDDHYWSGYFTSRPFYKRMDRIMESHLRAAEILYYFALRQAHKYKINKFLSSSLYTALTEARRNLGLFQHHDAITGTAKDWVVVDYGTRLFHSLMVLEKIIGNSAFLLILKDKLTYDSYSPDTFLEMDLKQKSQDSLPQKNIIRLSAEPRYLVVYNPLEQDRISLVSVYVSSPTVQVFSASGKPVEVQVSAVWDTANTISETAYEISFRAHIPPLGLKVYKILESASSNSHLADYVLYKNKVEDSGIFTIKNMINTEEGITLENSFVLLRFDQTGLMKQMMTKEDGKHHEVNVQFSWYGTTIKRDKSGAYLFLPDGNAKPYVYTTPPFVRVTHGRIYSEVTCFFDHVTHRVRLYHIQGIEGQSVEVSNIVDIRKVYNREIAMKISSDIKSQNRFYTDLNGYQIQPRMTLSKLPLQANVYPMTTMAYIQDAKHRLTLLSAQSLGVSSLNSGQIEVIMDRRLMQDDNRGLEQGIQDNKITANLFRILLEKRSAVNTEEEKKSVSYPSLLSHITSSLMNHPVIPMANKFSSPTLELQGEFSPLQSSLPCDIHLVNLRTIQSKVGNGHSNEAALILHRKGFDCRFSSKGTGLFCSTTQGKILVQKLLNKFIVESLTPSSLSLMHSPPGTQNISEINLSPMEISTFRIQLR [MAN2A1]”: the melting temperature in the series with HeLa Kyoto [1] (cell cycle stage: G1/S) and in the series on HeLa Kyoto [1] (cell cycle stage: mitosis) was 54.8 °C in each case. Besides, the “solubility change mitosis (log2)” value with HeLa Kyoto [2] is -0.156. In addition, the thermal stability score with HeLa Kyoto [3] (setting [5]) was 2.95; in the series with HeLa Kyoto [3] (cell cycle stage: mitosis), 3.08. The “solubility in G1/S (log2)” value with HeLa Kyoto [4] was -0.0419.
With “MKMTVDFEECLKDSPRFRAALEEVEGDVAELELKLDKLVKLCIAMIDTGKAFCVANKQFMNGIRDLAQYSSNDAVVETSLTKFSDSLQEMINFHTILFDQTQRSIKAQLQNFVKEDLRKFKDAKKQFEKVSEEKENALVKNAQVQRNKQHEVEEATNILTATRKCFRHIALDYVLQINVLQSKRRSEILKSMLSFMYAHLAFFHQGYDLFSELGPYMKDLGAQLDRLVVDAAKEKREMEQKHSTIQQKDFSSDDSKLEYNVDAANGIVMEGYLFKRASNAFKTWNRRWFSIQNNQLVYQKKFKDNPTVVVEDLRLCTVKHCEDIERRFCFEVVSPTKSCMLQADSEKLRQAWIKAVQTSIATAYREKGDESEKLDKKSSPSTGSLDSGNESKEKLLKGESALQRVQCIPGNASCCDCGLADPRWASINLGITLCIECSGIHRSLGVHFSKVRSLTLDTWEPELLKLMCELGNDVINRVYEANVEKMGIKKPQPGQRQEKEAYIRAKYVERKFVDKYSISLSPPEQQKKFVSKSSEEKRLSISKFGPGDQVRASAQSSVRSNDSGIQQSSDDGRESLPSTVSANSLYEPEGERQDSSMFLDSKHLNPGLQLYRASYEKNLPKMAEALAHGADVNWANSEENKATPLIQAVLGGSLVTCEFLLQNGANVNQRDVQGRGPLHHATVLGHTGQVCLFLKRGANQHATDEEGKDPLSIAVEAANADIVTLLRLARMNEEMRESEGLYGQPGDETYQDIFRDFSQMASNNPEKLNRFQQDSQKF [ACAP2]”, the melting temperature in the series on HeLa Kyoto [1] (cell cycle stage: G1/S) came to 49.8 °C. In the series with HeLa Kyoto [2], the “solubility change mitosis (log2)” value was -0.215. Further, the figures for the thermal stability score in the series with HeLa Kyoto [3] (setting [5]) and in the series with HeLa Kyoto [3] (cell cycle stage: mitosis) were 0.348 and 0.369, respectively. The “solubility in G1/S (log2)” value in the series on HeLa Kyoto [4] is -0.0242.
Consider “MKNQDKKNGAAKQSNPKSSPGQPEAGPEGAQERPSQAAPAVEAEGPGSSQAPRKPEGAQARTAQSGALRDVSEELSRQLEDILSTYCVDNNQGGPGEDGAQGEPAEPEDAEKSRTYVARNGEPEPTPVVNGEKEPSKGDPNTEEIRQSDEVGDRDHRRPQEKKKAKGLGKEITLLMQTLNTLSTPEEKLAALCKKYAELLEEHRNSQKQMKLLQKKQSQLVQEKDHLRGEHSKAVLARSKLESLCRELQRHNRSLKEEGVQRAREEEEKRKEVTSHFQVTLNDIQLQMEQHNERNSKLRQENMELAERLKKLIEQYELREEHIDKVFKHKDLQQQLVDAKLQQAQEMLKEAEERHQREKDFLLKEAVESQRMCELMKQQETHLKQQLALYTEKFEEFQNTLSKSSEVFTTFKQEMEKMTKKIKKLEKETTMYRSRWESSNKALLEMAEEKTVRDKELEGLQVKIQRLEKLCRALQTERNDLNKRVQDLSAGGQGSLTDSGPERRPEGPGAQAPSSPRVTEAPCYPGAPSTEASGQTGPQEPTSARA [TXLNA]”, for which the melting temperature in the series on HeLa Kyoto [1] (cell cycle stage: G1/S) amounted to 52.5 °C; in the series on HeLa Kyoto [1] (cell cycle stage: mitosis), 52.6 °C. The “solubility change mitosis (log2)” value in the series with HeLa Kyoto [2] was found to be 0.248. The thermal stability score was 0.411 in the series with HeLa Kyoto [3] (setting [5]) and -0.854 in the series with HeLa Kyoto [3] (cell cycle stage: mitosis). In addition, the “solubility in G1/S (log2)” value in the series on HeLa Kyoto [4] came to 0.802.
